Molecular target: the molecule itself
Experiment: dynamic light scattering

B1: hPXR LBD (residues 140–434) with an N-terminal His tag and an SRC-1 fragment tethered at the C-terminus (domain or fragment)
chain: VQGLTEEQRMMIRELMDAQMKTFDTTFSHFKNFRLPGVLSSGCELPESLQAPSREEAAKWSQVRKDLCSLKVSLQLRGEDGSVWNYKPPADSGGKEIFSLLPHMADMSTYMFKGIISFAKVISYFRDLPIEDQISLLKGAAFELCQLRFNTVFNAETGTWECGRLSYCLEDTAGGFQQLLLEPMLKFHYMLKKLQLHEEEYVLMQAISLFSPDRPGVLQHRVVDQLQEQFAITLKSYIECNRPQPAHRFLFLKIMAMLTELRSINAQHTQRLLRIQDIHPFATPLMQELFGITGSGGSGGSSHSSLTERHKILHRLLQEGSPS
stoichiometry N: 2

From article PMC8989523 (Nucleic Acids Research, 2022)
